Results reported in paper PMC5847621 (Nature Communications, 2018).

T1: VSV Gth, soluble form of the ectodomain of VSV glycoprotein G (residues 1-422) (Vesicular stomatitis virus (Mudd-Summer …, UniProt P0C2X0 17-438))
T1 sequence: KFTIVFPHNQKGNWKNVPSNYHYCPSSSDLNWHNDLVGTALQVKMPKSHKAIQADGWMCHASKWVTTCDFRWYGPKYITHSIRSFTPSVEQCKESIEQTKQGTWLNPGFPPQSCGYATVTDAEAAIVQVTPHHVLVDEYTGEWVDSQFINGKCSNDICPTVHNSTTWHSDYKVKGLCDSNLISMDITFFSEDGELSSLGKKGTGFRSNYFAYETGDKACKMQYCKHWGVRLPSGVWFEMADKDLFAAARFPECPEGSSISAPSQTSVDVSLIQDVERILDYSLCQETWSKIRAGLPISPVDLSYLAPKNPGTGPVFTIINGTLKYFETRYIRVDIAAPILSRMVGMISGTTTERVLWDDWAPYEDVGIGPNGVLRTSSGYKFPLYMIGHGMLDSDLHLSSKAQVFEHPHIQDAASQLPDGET

B1: LDL-R CR3 domain, isolated (GST cleaved off) (domain or fragment)
chain: not shown
notes: also called CR3 monovalent domain; not shown: GST, N-terminal, cleaved
B2: LDL-R CR2 domain, isolated (GST cleaved off) (domain or fragment)
chain: not shown
notes: also called CR2 monovalent domain; not shown: GST, N-terminal, cleaved

Biological target: T1, VSV Gth, soluble form of the ectodomain …
Test: ITC
Details: both partners purified

Row | Binder | Kd | stoichiometry N
1 | B1 | 4.3 µM | 1
2 | B2 | 7.3 µM | 1
